This passage reports Kd results from US20200317768A1 (published 2020).

Assay in all cases: SPR (Biacore), antibody captured, FcgR analyte
The target of experiment [1] is T1, cynomolgus monkey FcγRIIa2 extracellular domain, C-terminal His-tag (cynomolgus monkey).
T1 construct: also called cyno FcγRIIa2; cynoFcgRIIa2
T1 chain: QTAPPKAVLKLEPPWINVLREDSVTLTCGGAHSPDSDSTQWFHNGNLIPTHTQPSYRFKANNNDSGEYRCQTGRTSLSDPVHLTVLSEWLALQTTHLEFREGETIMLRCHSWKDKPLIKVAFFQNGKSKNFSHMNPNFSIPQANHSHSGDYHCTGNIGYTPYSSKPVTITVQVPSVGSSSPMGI
The procedure: (§1) The kinetic analysis of interactions between these antibodies and FcγR was carried out using BIACORE® T200 or BIACORE® 4000 (GE Healthcare). HBS-EP+ (GE Healthcare) was used as the running buffer, and the measurement temperature was set to 25° C. A chip produced by immobilizing Protein A. Protein A/G or mouse anti-human IgG kappa light chain (BD Biosciences) onto a Series S Sensor Chip CM4 or CM5 (GE Healthcare) by the amine-coupling method was used. […] After the measurement, the antibody captured on the chip was washed off by allowing reaction with 10 mM glycine-HCl, pH1.5 and 25 mM NaOH so that the chip was regenerated and used repeatedly. The sensorgrams obtained as measurement results were analyzed by the 1:1 Langmuir binding model using the BIACORE® Evaluation Software to calculate the binding rate constant ka (L/mol/s) and dissociation rate constant kd (l/s), and the dissociation constant KD (mol/L) was calculated from these values. […] Regarding such interactions, KD values were calculated using the following 1:1 binding model described in BIACORE® T100 Software Handbook BR1006-48 Edition AE.
(§2) The behavior of interacting molecules according to the 1:1 binding model on BIACORE® can be described by Equation 1: Req=C·R max/(KD+C)+RI, wherein, Req is a plot of steady-state binding levels to analyte concentration. C is concentration, RI is bulk refractive index contribution in the sample, and Rmax is analyte binding capacity of the surface. When this equation is rearranged, KD can be expressed as Equation 2: KD=C·Rmax/(Req−RI)−C. KD can be calculated by substituting the values of Rmax, RI, and C into Equation 1 or Equation 2. From the current measurement conditions, RI=0, C=2 μmol/L can be used.

For experiment [2], the target named is T2, cynomolgus monkey FcγRIIa3 extracellular domain, C-terminal His-tag (cynomolgus monkey).
T2 construct: also called cyno FcγRIIa3; cynoFcgRIIa3
T2 chain: T1 chain with K127I, N130K, H133P, Q142R
As for the experimental part:
as §1, §2

Experiment [3] concerns the target T3, human FcγRIIaH extracellular domain, C-terminal His-tag (human, UniProt P12318 34-217).
T3 construct: also called human FcγRIIa (type H); FcgRIIaH
T3 sequence: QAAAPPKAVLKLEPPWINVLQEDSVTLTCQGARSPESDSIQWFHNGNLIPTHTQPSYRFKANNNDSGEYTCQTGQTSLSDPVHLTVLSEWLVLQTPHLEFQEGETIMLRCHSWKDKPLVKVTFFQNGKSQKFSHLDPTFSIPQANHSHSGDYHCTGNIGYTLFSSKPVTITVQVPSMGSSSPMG
As for the experimental part:
as §1, §2

For experiment [4], the target named is T4, cynomolgus monkey FcγRIIb extracellular domain, C-terminal His-tag (cynomolgus monkey).
T4 construct: also called cyno FcγRIIb; cynoFcγRIIb
T4 chain: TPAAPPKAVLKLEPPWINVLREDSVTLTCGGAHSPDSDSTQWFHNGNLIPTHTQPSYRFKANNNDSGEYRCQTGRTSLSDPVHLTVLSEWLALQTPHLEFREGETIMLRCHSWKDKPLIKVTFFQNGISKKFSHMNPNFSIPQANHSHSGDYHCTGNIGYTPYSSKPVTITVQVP
The procedure:
as §1, §2

The target of experiment [5] is T5, cynomolgus monkey FcγRIIIaS extracellular domain, C-terminal His-tag (cynomolgus monkey, UniProt Q8SPW2 21-206 at identity 1.00)).
T5 construct: also called cyno FcγRIIIaS; cynoFcγRIIIaS
T5 chain: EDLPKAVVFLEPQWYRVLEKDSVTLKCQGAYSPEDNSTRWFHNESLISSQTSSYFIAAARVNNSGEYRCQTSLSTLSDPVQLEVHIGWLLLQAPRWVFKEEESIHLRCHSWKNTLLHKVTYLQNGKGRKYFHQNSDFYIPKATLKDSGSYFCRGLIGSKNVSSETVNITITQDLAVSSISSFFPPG
As for the experimental part: as §1, §2

The target in experiment [6] is T6, human FcγRIIaR extracellular domain, C-terminal His-tag (human, UniProt P12318 34-217).
T6 construct: also called human FcγRIIa (type R); FcgRIIaR
T6 chain: T3 sequence with H134R
The procedure:
as §1, §2

For experiment [7], the target named is T7, cynomolgus monkey FcγRIIa1 extracellular domain, C-terminal His-tag (cynomolgus monkey).
T7 construct: also called cyno FcγRIIa1; cynoFcgRIIa1
T7 chain: T1 chain with T95P, A121T, K127I, S128A, N130K, N135D, Q142R
The procedure: as §1, §2

Experiment [8] concerns the target T8, human FcγRIIb extracellular domain, C-terminal His-tag (human, UniProt P31994 43-217).
T8 construct: also called human FcgRIIb; FcgRIIb
T8 sequence: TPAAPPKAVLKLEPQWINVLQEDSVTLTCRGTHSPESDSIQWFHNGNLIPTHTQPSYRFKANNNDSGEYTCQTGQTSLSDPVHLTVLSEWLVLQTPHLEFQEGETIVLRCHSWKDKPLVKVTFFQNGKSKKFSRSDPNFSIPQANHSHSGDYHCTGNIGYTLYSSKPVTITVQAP
As for the experimental part:
as §1, §2

Experiment [9] concerns the target T9, human FcγRIIIaV extracellular domain, C-terminal His-tag (human, UniProt P08637 17-208).
T9 construct: also called human FcgRIIIaV; FcgRIIIaV
As for the experimental part: as §1, §2

Changes are numbered by the printed parent chain.

T9 sequence (P08637 17-208 F176V): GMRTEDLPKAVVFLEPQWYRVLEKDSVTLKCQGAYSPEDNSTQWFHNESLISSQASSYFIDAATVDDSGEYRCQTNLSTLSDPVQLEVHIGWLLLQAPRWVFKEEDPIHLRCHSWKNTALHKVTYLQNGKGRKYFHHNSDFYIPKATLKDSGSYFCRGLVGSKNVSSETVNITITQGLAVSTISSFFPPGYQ

B1: M103205H795-MY208/M103202L889-SK1 (antibody, human IgG1, kappa)
heavy: QVTLKESGPVLVKPTETLTLTCTVSGIDLSHDDISWVRQAPGKGLEWVGIISYAGSTYYASWAKGRLTISKDTSKNQVVLTMTNMDPVDTATYYCARGVPAYSHGGDLWGQGTLVTVSSASTKGPSVFPLAPSSKSTSGGTAALGCLVKDYFPEPVTVSWNSGALTSGVHTFPAVLQSSGLYSLSSVVTVPSSSLGTQTYICNVNHKPSNTKVDKKVEPKSCDKTHTCPPCPAPELLNGPSVFLFPPKPKDTLMISRTPEVTCVVVDVSDEDPEVKFNWYVDGVEVHNAKTKPREELYNSTYRVVSVLTVLHQDWLNGKEYKCKVSNKALPAPIEKTISKAKGQPREPQVYTLPPSREEMTKNQVSLTCLVKGFYPSDIAVEWESNGQPENNYKTTPPVLDSDGSFFLYSKLTVDKSRWQQGNVFSCSVMHEALHNHYTQKSLSLSP
light: DIVMTQSPATLSLSPGERATLSCTSSQSVYHANWLSWFQQKPGQPPKLLIYWASTLAYGVPSRFSGSGSGTDFTLTISSLQPEDAATYYCAGGYGGGRYAFGQGTKVEIKRTVAAPSVFIFPPSDEQLKSGTASVVCLLNNFYPREAKVQWKVDNALQSGNSQESVTEQDSKDSTYSLSSTLTLSKADYEKHKVYACEVTHQGLSSPVTKSFNRGEC
notes: Substitutions introduced into M103205H795-SG1; expressed with M103202L889-SK1 as light chain
With B1, the Kd in [1] came out at 1500 nM; in experiment [2] it was 5700 nM; in experiment [3], 530 nM; in [4], 640 nM; in experiment [5], 2800 nM; in [6] it was 21000 nM. Further, the values for the dissociation constant (Kd) in [7], in experiment [8] and in experiment [9] were 1200 nM, 12000 nM and 10000 nM, respectively.

B2: M103205H795-MY212/M103202L889-SK1 (antibody, human IgG1, kappa)
heavy: B1 heavy with S241V, K328T, A332K
light: B1 light
notes: as for B1
With B2, the Kd in experiment [1] was 530 nM; in experiment [2], 29000 nM; in experiment [3], 800 nM; in experiment [4] it was 370 nM; in experiment [5], 2600 nM; in experiment [6], 1300 nM. For the same molecule, the Kd in [7] worked out at 560 nM; in experiment [8], 630 nM; in [9], 6500 nM.

B3: M103205H795-MY288/M103202L889-SK1 (antibody, human IgG1, kappa)
heavy: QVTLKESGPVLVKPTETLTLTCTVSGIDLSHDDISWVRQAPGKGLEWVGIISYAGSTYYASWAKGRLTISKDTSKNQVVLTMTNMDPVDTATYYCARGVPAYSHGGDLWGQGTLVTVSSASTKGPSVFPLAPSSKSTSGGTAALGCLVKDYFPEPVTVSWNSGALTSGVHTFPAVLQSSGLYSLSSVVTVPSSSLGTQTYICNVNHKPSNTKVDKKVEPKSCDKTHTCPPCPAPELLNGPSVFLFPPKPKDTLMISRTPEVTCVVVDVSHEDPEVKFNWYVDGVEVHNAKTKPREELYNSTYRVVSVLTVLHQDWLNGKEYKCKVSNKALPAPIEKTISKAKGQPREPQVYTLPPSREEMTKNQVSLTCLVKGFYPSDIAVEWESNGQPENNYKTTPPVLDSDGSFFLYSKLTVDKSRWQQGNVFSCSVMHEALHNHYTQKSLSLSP
light: B1 light
notes: as for B1
Consider B3, for which the Kd in [1] came to 2000 nM; in [2] it was 11000 nM; in experiment [3], 1400 nM; in experiment [4] it was 3200 nM; in experiment [5] it was 13000 nM; in [6], 8500 nM. For the same molecule, the dissociation constant (Kd) in [7] amounted to 1500 nM; in experiment [8], 6200 nM; in [9] it was 68000 nM.

B4: M103205H795-MY210/M103202L889-SK1 (antibody, human IgG1, kappa)
heavy: B1 heavy with L297Q, K328T, A332K
light: B1 light
notes: as for B1
For B4, the Kd in experiment [1] amounted to 840 nM; in experiment [2] it was 23000 nM; in experiment [3], 880 nM; in experiment [4], 250 nM; in [5], 2400 nM; in experiment [6], 14 nM. For the same molecule, the figures for the Kd in [7], in [8] and in [9] were 950 nM, 980 nM and 51000 nM, respectively.

B5: M103205H795-MY211/M103202L889-SK1 (antibody, human IgG1, kappa)
heavy: B1 heavy with S241V, L297Q, K328T, A332K
light: B1 light
notes: as for B1
On to B5, for which the Kd is 530 nM in experiment [1]; 2700 nM in [2]; 1100 nM in experiment [3]; 470 nM in [4]; 5000 nM in experiment [5]; 13000 nM in [6]. Further, the values for the Kd in experiment [7], in [8] and in [9] were 750 nM, 520 nM and 4800 nM, respectively.

B6: M103205H795-MY209/M103202L889-SK1 (antibody, human IgG1, kappa)
heavy: B1 heavy with K328T, A332K
light: B1 light
notes: as for B1
For B6, the Kd is 690 nM in experiment [1]; 19000 nM in experiment [2]; 570 nM in experiment [3]; 190 nM in [4]; 2200 nM in [5]; 680 nM in experiment [6]. The Kd in [7] worked out at 830 nM; in [8], 500 nM; in experiment [9], 14000 nM.

B7: M103205H795-MY289/M103202L889-SK1 (antibody, human IgG1, kappa)
heavy: B1 heavy with D270H, L297Q, A332K, P398M
light: B1 light
notes: as for B1
For B7, the Kd worked out at 1500 nM in experiment [1]; 86000 nM in experiment [2]; 830 nM in experiment [3]; 740 nM in experiment [4]; 5200 nM in experiment [5]; 5500 nM in experiment [6]. Also, the Kd stood at 1300 nM in experiment [7], 2900 nM in experiment [8] and 7700 nM in [9].

Usually Kd stands for the constant that tells how readily two partners part at equilibrium.
